We go through two molecules from publication PMC11018632, “The CB1 receptor interacts with cereblon and drives cereblon deficiency-associated memory shortfalls” (EMBO Molecular Medicine, 2024).

Experiment [1] concerns the target T1, 5-IAF-labelled 6xHis-tagged human CB1R carboxy-terminal domain (hCB1R-CTD, amino acids 400-472) (human, UniProt P21554 400-472, labelled with 5-(iodoacetamido)fluorescein (5-IAF)).
T1 chain: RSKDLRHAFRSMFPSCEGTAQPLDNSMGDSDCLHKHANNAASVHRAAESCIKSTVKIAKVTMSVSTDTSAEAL
The experiment in a line: FP.

Experiment [2] addresses T2, 6xHis-tagged human cereblon (hCRBN), recombinant (human, UniProt Q96SW2 1-442).
T2 construct: cereblon/CRBN, human; human CRBN cDNA inserted in the pBH4 vector; the introduction speaks of the 442 amino-acid protein; No tag cleavage is described; also called His6-tagged CRBN; unlabelled human CRBN
The experiment in a line: fluorescence polarisation; saturation binding; constant 100 nM 5-IAF-hCB1R-CTD and increasing amounts of hCRBN (~0-100 µM); fitted to a one-site equation for Kd. The conditions noted are these: both partners purified. In general terms: Polarisation of emitted light reports the rotation of a fluorescent probe.

B1: 6xHis-tagged human cereblon (hCRBN), recombinant (natural protein)
chain: MAGEGDQQDAAHNMGNHLPLLPAESEEEDEMEVEDQDSKEAKKPNIINFDTSLPTSHTYLGADMEEFHGRTLHDDDSCQVIPVLPQVMMILIPGQTLPLQLFHPQEVSMVRNLIQKDRTFAVLAYSNVQEREAQFGTTAEIYAYREEQDFGIEIVKVKAIGRQRFKVLELRTQSDGIQQAKVQILPECVLPSTMSAVQLESLNKCQIFPSKPVSREDQCSYKWWQKYQKRKFHCANLTSWPRWLYSLYDAETLMDRIKKQLREWDENLKDDSLPSNPIDFSYRVAACLPIDDVLRIQLLKIGSAIQRLRCELDIMNKCTSLCCKQCQETEITTKNEIFSLSLCGPMAAYVNPHGYVHETLTVYKACNLNLIGRPSTEHSWFPGYAWTVAQCKICASHIGWKFTATKKDMSPQKFWGLTRSALLPTIPDTEDEISPDKVILCL
A word on the Kd: it is a measure of binding affinity in units of concentration. In the case of B1, the Kd in experiment [1] amounted to 2810 nM.

B2: 5-IAF-labelled 6xHis-tagged human CB1R carboxy-terminal domain (hCB1R-CTD, amino acids 400-472) (domain or fragment, UniProt P21554 400-472, looked up)
chain: T1 chain
modifications: labelled with 5-(iodoacetamido)fluorescein (5-IAF)
notes: type-1 cannabinoid receptor (CB1R), human, carboxy-terminal domain, amino acids 400-472; The construct was made in earlier work (Costas-Insua et al, 2021); The results section gives aa 408-472 for the CTD of the earlier proteomic screen; also called 5-IAF-hCB1R-CTD; His6-tagged CB1R-CTD
B2: the binding result in experiment [2] is “binds”.
